Patent US20210301025A1 (published 2021)
Numbering of substitutions follows the chain as printed.

B1: P114AR7P92-G8 (designed binder, not shown: small tags and cut ends)
chain: LPAPKNLVVSRVTEDSARLSWTAPDAAFDSFVIRYFEFLGSGEAIVLTVPGSERSYDLTGLKPGTEYVVQILGVKGGYISIPLSAIFTT
B2: P114AR7P95-G7 (designed binder, not shown: small tags and cut ends)
chain: B1 chain with V32W, F38L, G40S, S41T, Q70N, L72M, Y78S, I81P
B3: P114AR7P95-F10 (designed binder, not shown: small tags and cut ends)
chain: B1 chain with V32W, L39T, G40T, S41A, Q70N, L72M, Y78S, I81P
B4: P114AR7P92-F6 (designed binder, not shown: small tags and cut ends)
chain: B1 chain with V32W, Q70N, Y78G, I79L, I81V
B5: P114AR7P95-H8 (designed binder, not shown: small tags and cut ends)
chain: B1 chain with V32W, L39V, G40S, S41K, Q70N, L72M, Y78S, I81P
B6: P114AR7P93-G8 (designed binder, not shown: small tags and cut ends)
chain: B1 chain with V32W, G60D, V68G, Q70T, L72N, Y78R, I79V, I81T
B7: P114AR7P94-E5 (designed binder, not shown: small tags and cut ends)
chain: B1 chain with V32W, V68A, Q70N, L72M, Y78R, I79V, I81V
B8: P114AR7P93-H9 (designed binder, not shown: small tags and cut ends)
chain: B1 chain with V32W, L72I, Y78H, I81L
B9: P114AR7P94-A3 (designed binder, not shown: small tags and cut ends)
chain: B1 chain with V32W, Q70N, L72M, Y78K, I81P
B10: P114AR7P95-D3 (designed binder, not shown: small tags and cut ends)
chain: B1 chain with V32W, Q70N, L72M, Y78S, I81Y
B11: P114AR7P95-B9 (designed binder, not shown: small tags and cut ends)
chain: B1 chain with V32W, Y78S, I81V
B12: P114AR5P75-E9 (designed binder, not shown: small tags and cut ends)
chain: B1 chain with V32F, F36D, G40R, V68W, Q70T, Y78L, I79V, I81T
B13: P114AR7P92-F3 (designed binder, not shown: small tags and cut ends)
chain: B1 chain with V32W, V68I, Q70N, L72M, Y78S, I81H

Biological target: T1, human c-Met on cells (NCI-H441, NCI-H292, U87-MG) (human, UniProt P08581 25-1390)
T1 construct: Endogenous c-Met of human tumor cell lines; also called hepatocyte growth factor receptor
Assay: NCI-H441 cell binding, anti-His fluorescence
Experimental: Purified FN3 domains (50 μL/well; 0 to 1000 nM) were added to the cells for 1 hour at 4° C. in duplicate plates. Supernatant was removed and cells were washed three times with FACS stain buffer (150 μL/well, BD Biosciences, cat #554657). Cells were incubated with biotinylated-anti HIS antibody (diluted 1:160 in FACS stain buffer, 50 μL/well, R&D Systems, cat # BAM050) for 30 minutes at 4° C. Cells were washed three times with FACS stain buffer (150 μL/well), after which wells were incubated with anti mouse IgG1-Alexa 488 conjugated antibody (diluted 1:80 in FACS stain buffer, 50 μL/well, Life Technologies, cat # A21121) for 30 minutes at 4° C. Cells were washed three times with FACS stain buffer (150 μL/well) and left in FACS stain buffer (50 μL/well). Total fluorescence was determined using an Acumen eX3 reader. Data were plotted as raw fluorescence signal against the logarithm of the FN3 domain molar concentration and fitted to a sigmoidal dose-response curve with variable slope using GraphPad Prism 4 (GraphPad Software) to calculate EC₅₀ values.

| Binder | EC50 [nM] |
| --- | --- |
| B1 | 5.9 |
| B2 | 11.3 |
| B3 | 4.4 |
| B4 | 4.9 |
| B5 | 4.1 |
| B6 | 3.8 |
| B7 | 3.4 |
| B8 | 12.9 |
| B9 | 1.4 |

Biological target: T2, Recombinant human c-Met Fc chimera (human, UniProt P08581 16-932)
T2 construct: whole c-Met entry named; also called c-Met-Fc fusion protein
Assay: competition with biotinylated HGF on plate-coated c-Met-Fc

| Binder | IC50 [nM] |
| --- | --- |
| B10 | 0.2 |
| B1 | 1.6 |
| B11 | 0.3 |
| B3 | 1.4 |
| B4 | 2.2 |
| B12 | 51.9 |
| B6 | 1 |
| B13 | 0.2 |
| B7 | 0.7 |
| B8 | 2.9 |
| B9 | 0.2 |

Biological target: T1, human c-Met on cells (NCI-H441, …)
Assay: cell-based or functional assay

| Binder | pMet inhibition in H441 cells IC50 | Inhibition of proliferation of U87-MG cells IC50 [nM] |
| --- | --- | --- |
| B10 | 4.6 nM | – |
| B1 | 155 nM | 124 |
| B11 | 9.8 nM | 17.4 |
| B2 | 659 nM | 692 |
| B3 | 188 nM | 130 |
| B4 | 165 nM | 350 |
| B5 | 210 nM | 281 |
| B12 | 1.42 µM | 1190 |
| B6 | 460 nM | 104 |
| B13 | 8.3 nM | 2.7 |
| B7 | 124 nM | 196 |
| B8 | 288 nM | 270 |
| B9 | 5 nM | 9.3 |

Biological target: T3, recombinant c-Met extracellular domain (human, UniProt P08581 16-932)
T3 construct: Construct used for SPR is not described further (may be the Fc chimera, as the protocol captures on anti-human Fc)
Assay: SPR kinetic analysis as in Example 2

| Binder | Kd [nM] |
| --- | --- |
| B10 | 0.3 |
| B1 | 1 |
| B2 | 20 |
| B3 | 4.2 |
| B4 | 3.1 |
| B5 | 3.7 |
| B12 | 45.8 |
| B6 | 6.9 |
| B13 | 0.4 |
| B7 | 4.2 |
| B8 | 3.3 |
| B9 | 0.4 |
